# Test results taken from publication PMC10616211.
# How the values were obtained:
# [1] = target: cytosolic fragment of MFN2 (modified, truncated human MFN2, residues 1–19 and 401–705 deleted) (human) (UniProt O95140); experiment: ELISA; MFN2 coated on plates (0.1 µM); HEK293T lysate with DIAPH1-eCFP added in TBS pH 6.2, overnight 4 °C; anti-GFP-HRP; one site total and nonspecific binding fit
# [2] = target: cytosolic fragment of MFN2 (modified, truncated human MFN2, residues 1–19 and 401–705 deleted) (human) (UniProt O95140); experiment: ELISA; as the pH 6.2 plate assay, with purified DID as competitor (1 µM in the results; wells treated with 2 µM DID in the methods)
# [3] = target: cytosolic fragment of MFN2 (modified, truncated human MFN2, residues 1–19 and 401–705 deleted) (human) (UniProt O95140); experiment: ELISA; MFN2 coated on plates (0.1 µM); HEK293T lysate with DIAPH1-eCFP added in TBS pH 7.2, overnight 4 °C; anti-GFP-HRP; one site total and nonspecific binding fit
# Chain of DIAPH1-eCFP (O60610 whole entry, the tested form may be a part): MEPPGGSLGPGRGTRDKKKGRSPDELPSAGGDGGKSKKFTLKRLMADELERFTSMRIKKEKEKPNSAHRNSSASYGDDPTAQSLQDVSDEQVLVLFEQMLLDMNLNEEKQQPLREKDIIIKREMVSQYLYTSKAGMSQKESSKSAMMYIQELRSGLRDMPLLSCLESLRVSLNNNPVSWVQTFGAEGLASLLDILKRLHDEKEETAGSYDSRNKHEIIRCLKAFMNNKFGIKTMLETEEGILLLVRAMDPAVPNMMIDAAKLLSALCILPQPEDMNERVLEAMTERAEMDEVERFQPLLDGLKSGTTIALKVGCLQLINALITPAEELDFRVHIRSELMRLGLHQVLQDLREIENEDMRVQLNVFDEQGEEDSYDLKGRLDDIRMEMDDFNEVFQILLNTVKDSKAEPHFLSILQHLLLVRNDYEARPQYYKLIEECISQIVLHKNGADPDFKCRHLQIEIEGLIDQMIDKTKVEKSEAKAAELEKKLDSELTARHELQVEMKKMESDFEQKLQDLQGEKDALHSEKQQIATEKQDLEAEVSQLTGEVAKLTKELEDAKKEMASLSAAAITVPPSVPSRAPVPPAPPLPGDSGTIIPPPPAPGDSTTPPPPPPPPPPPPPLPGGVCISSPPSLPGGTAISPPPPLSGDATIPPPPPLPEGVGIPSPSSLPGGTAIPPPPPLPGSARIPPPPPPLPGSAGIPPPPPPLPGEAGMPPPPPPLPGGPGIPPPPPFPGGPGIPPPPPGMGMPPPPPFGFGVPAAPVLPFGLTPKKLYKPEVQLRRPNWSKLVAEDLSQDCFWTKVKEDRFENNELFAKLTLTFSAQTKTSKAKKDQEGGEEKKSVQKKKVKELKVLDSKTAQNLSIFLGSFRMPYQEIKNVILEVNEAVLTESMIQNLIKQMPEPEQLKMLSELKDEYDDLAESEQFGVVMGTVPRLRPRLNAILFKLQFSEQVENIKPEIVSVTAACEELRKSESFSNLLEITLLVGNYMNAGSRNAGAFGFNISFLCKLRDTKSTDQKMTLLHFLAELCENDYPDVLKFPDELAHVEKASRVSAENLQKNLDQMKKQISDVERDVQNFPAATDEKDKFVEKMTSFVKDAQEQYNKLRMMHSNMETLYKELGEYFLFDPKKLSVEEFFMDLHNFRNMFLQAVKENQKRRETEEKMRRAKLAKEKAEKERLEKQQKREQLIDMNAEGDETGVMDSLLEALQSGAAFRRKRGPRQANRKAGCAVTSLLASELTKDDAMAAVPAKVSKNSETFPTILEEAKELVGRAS
substance,measurement,setting,value
DIAPH1-eCFP (from UniProt O60610 1-1272) (natural protein),Kd,[1],0.01 nM
same,KD in the presence of 1 µM DID,[2],0.22 nM
same,Kd,[3],0.7 nM
